{"source": "patent US20160184441A1", "about": "“PROLAMIN-BASED FILM AND METHOD FOR MANUFACTURING PROLAMIN-BASED ORAL FILM FOR PROTECTING ACTIVITY OF ANTI-OXIDATIVE MATERIAL” (SEHABIO CO., LTD., priority 2014, published 2016)", "key": {"catalase [1]": {"system": "catalase", "assay": "Catalase activity by decomposition rate of H2O2 (absorbance at 240 nm), pH 7.0", "type": "biochemical", "conditions": "free enzyme vs enzyme contained in film (FIG. 2, FIG. 3)", "experimental": "(§1) In the prolamin-based film for oral delivery containing catalase, the activity of catalase was measured by checking the decomposition rate of hydrogen peroxide (H2O2). The activity of catalase was measured by mixing catalase or the prolamin-based film for oral delivery containing catalase with 10 μM of H2O2 in a buffering solution of pH 7.0, and then monitoring the absorbance value of H2O2 at 240 nm. Further, in the prolamin-based film for oral delivery containing SOD, SOD activity was measured in accordance with the manufacturer's instructions by using SOD assay kit (SOD determination kit 19,160, Fluka, St. Louis, Mo.). Significance of results was determined via t-test between Zein film and other films containing SOD or catalase with p<0.05(*).\nThe activities of catalases contained in the film for oral delivery as prepared in the Comparative Example 1-1 and Example 1-1 were compared. […] 1 mg of each formulation was taken to check the quantity of fluorescence which was then compared with the initially used quantity of fluorescence, resulting in the determination of the quantity of catalase in each formulation. The activity of catalase was evaluated at pH 7.0 as described in Example 2-1 by using fluorescent-unbound catalase, forming Zein Nanoparticle and Film, and taking 1 mg of each formulation. […]"}, "catalase [2]": {"system": "catalase", "assay": "Catalase activity in the stomach condition (HCl pH 1.3, with or without pepsin)", "type": "biochemical", "conditions": "pH 1.3, 20 minutes, pepsin-treated or pepsin-untreated (FIG. 5, FIG. 6)", "experimental": "as §1\nThe function of Zein in protecting an anti-oxidative protein in the stomach condition was evaluated. In order to mimic the stomach condition, catalase or the prolamin-based film for oral delivery containing catalase was added into hydrochloric acid solution (50.1 mM HCl, pH 1.3) and left for 20 minutes. […] The activities of catalase and SOD were measured in the same manner as Example 2-1. Significance of results was determined via t-test between free enzymes and other delivery vehicles with p<0.05(*)."}, "catalase [3]": {"system": "catalase", "assay": "Catalase activity in the small intestine condition (pH 7.4, with or without trypsin)", "type": "biochemical", "conditions": "pH 7.4, 30 minutes", "experimental": "as §1\nIn order to mimic the small intestine condition, test groups were divided into […] Trypsin-treated group and Trypsin-untreated group, respectively, while being left for 30 minutes in the environment of pH 7.4.\nThe activities of catalase and SOD were measured in the same manner as Example 2-1. Significance of results was determined via t-test between free enzymes and other delivery vehicles with p<0.05(*)."}, "Human Skin Fibroblasts": {"system": "Human Skin Fibroblasts", "conditions": "Silverberg et al. 2012; cited from earlier work"}}}
{"compound": "catalase", "values": [{"measurement": "relative activity of catalase", "setting": "catalase [1]", "value": "approximately similar to those as contained in the Zein-based film"}, {"measurement": "relative activity of catalase in the stomach condition", "setting": "catalase [2]", "value": "lost almost completely its activity"}, {"measurement": "relative activity of catalase in the small intestine condition, Trypsin-treated", "setting": "catalase [3]; Trypsin-treated group (FIG. 8, FIG. 9)", "value": "lost its activity significantly"}, {"measurement": "relative activity of catalase at pH 7.4, Trypsin-untreated", "setting": "catalase [3]; Trypsin-untreated group (FIG. 8)", "value": "maintained its activity"}]}
{"compound": "Cn1c(=O)c2c(ncn2C)n(C)c1=O", "note": "[Caffeine, caffeine]", "values": [{"measurement": "protection of cells from reactive oxygens", "setting": "Human Skin Fibroblasts", "value": "able to protect cells from reactive oxygens"}]}
